Earlier results as cited in paper PMC3090270 (Structure (London, England : 1993), 2010).

B1: Merlin: AKAP shown to bind RI subunits (protein, UniProt P35240 1-595, looked up)
Merlin: MAGAIASRMSFSSLKRKQPKTFTVRIVTMDAEMEFNCEMKWKGKDLFDLVCRTLGLRETWFFGLQYTIKDTVAWLKMDKKVLDHDVSKEEPVTFHFLAKFYPENAEEELVQEITQHLFFLQVKKQILDEKIYCPPEASVLLASYAVQAKYGDYDPSVHKRGFLAQEELLPKRVINLYQMTPEMWEERITAWYAEHRGRARDEAEMEYLKIAQDLEMYGVNYFAIRNKKGTELLLGVDALGLHIYDPENRLTPKISFPWNEIRNISYSDKEFTIKPLDKKIDVFKFNSSKLRVNKLILQLCIGNHDLFMRRRKADSLEVQQMKAQAREEKARKQMERQRLAREKQMREEAERTRDELERRLLQMKEEATMANEALMRSEETADLLAEKAQITEEEAKLLAQKAAEAEQEMQRIKATAIRTEEEKRLMEQKVLEAEVLALKMAEESERRAKEADQLKQDLQEAREAERRAKQKLLEIATKPTYPPMNPIPAPLPPDIPSFNLIGDSLSFDFKDTDMKRLSMEIEKEKVEYMEKSKHLQEQLNELKTEIEALKLKERETALDILHNENSDRGGSSKHNTIKKLTLQSAKSRVAFFEEL
B2: Pap7: AKAP shown to bind RI subunits (protein, UniProt Q9H3P7 1-528, looked up)
Golgi resident protein GCP60: MAAVLNAERLEVSVDGLTLSPDPEERPGAEGAPLLPPPLPPPSPPGSGRGPGASGEQPEPGEAAAGGAAEEARRLEQRWGFGLEELYGLALRFFKEKDGKAFHPTYEEKLKLVALHKQVLMGPYNPDTCPEVGFFDVLGNDRRREWAALGNMSKEDAMVEFVKLLNRCCHLFSTYVASHKIEKEEQEKKRKEEEERRRREEEERERLQKEEEKRRREEEERLRREEEERRRIEEERLRLEQQKQQIMAALNSQTAVQFQQYAAQQYPGNYEQQQILIRQLQEQHYQQYMQQLYQVQLAQQQAALQKQQEVVVAGSSLPTSSKVNATVPSNMMSVNGQAKTHTDSSEKELEPEAAEEALENGPKESLPVIAAPSMWTRPQIKDFKEKIQQDADSVITVGRGEVVTVRVPTHEEGSYLFWEFATDNYDIGFGVYFEWTDSPNTAVSVHVSESSDDDEEEEENIGCEEKAKKNANKPLLDEIVPVYRRDCHEEVYAGSHQYPGRGVYLLKFDNSYSLWRSKSVYYRVYYTR
B3: D-AKAP1: dual-specific AKAP (protein, UniProt Q92667 30-903, looked up)
A-kinase anchor protein 1, …: KGHVSSHDEQQVEAGAVQLRADPAIKEPLPVEDVCPKVVSTPPSVTEPPEKELSTVSKLPAEPPALLQTHPPCRRSESSGILPNTTDMRLRPGTRRDDSTKLELALTGGEAKSIPLECPLSSPKGVLFSSKSAEVCKQDSPFSRVPRKVQPGYPVVPAEKRSSGERARETGGAEGTGDAVLGEKVLEEALLSREHVLELENSKGPSLASLEGEEDKGKSSSSQVVGPVQEEEYVAEKLPSRFIESAHTELAKDDAAPAPPVADAKAQDRGVEGELGNEESLDRNEEGLDRNEEGLDRNEESLDRNEEGLDRNEEIKRAAFQIISQVISEATEQVLATTVGKVAGRVCQASQLQGQKEESCVPVHQKTVLGPDTAEPATAEAAVAPPDAGLPLPGLPAEGSPPPKTYVSCLKSLLSSPTKDSKPNISAHHISLASCLALTTPSEELPDRAGILVEDATCVTCMSDSSQSVPLVASPGHCSDSFSTSGLEDSCTETSSSPRDKAITPPLPESTVPFSNGVLKGELSDLGAEDGWTMDAEADHSGGSDRNSMDSVDSCCSLKKTESFQNAQAGSNPKKVDLIIWEIEVPKHLVGRLIGKQGRYVSFLKQTSGAKIYISTLPYTQSVQICHIEGSQHHVDKALNLIGKKFKELNLTNIYAPPLPSLALPSLPMTSWLMLPDGITVEVIVVNQVNAGHLFVQQHTHPTFHALRSLDQQMYLCYSQPGIPTLPTPVEITVICAAPGADGAWWRAQVVASYEETNEVEIRYVDYGGYKRVKVDVLRQIRSDFVTLPFQGAEVLLDSVMPLSDDDQFSPEADAAMSEMTGNTALLAQVTSYSPTGLPLIQLWSVVGDEVVLINRSLVERGLAQWVDSYYTSL

test system: RI subunits; conditions: ref Huang et al., 1997b (D-AKAP1), 1997a (D-AKAP2), Reinton et al., 2000 (AKAP220), Gronholm et al., 2003 (Merlin), Li et al., 2001 (Pap7)

Row | Molecule | binding to RI subunits (dual-specific)
1 | B1 | bind RI subunits
2 | B2 | bind RI subunits
3 | B3 | bind RI subunits
